Test results: patent US20250145711A1 (Janssen / Centocor, published 2025)

Tests used:
[1] = biological target: T1, CD3 on primary human pan T cells (human, UniProt P07766 23-207); experiment: flow cytometry, pan T-cells
T1 construct: on cells it stands in the TCR/CD3 complex; also called Pan T-cells (CD3-positive); endogenous CD3
Experimental: ELISA assays for binding to recombinant CD3 (TRCW5, SEQ ID NO: 39) were performed as above. Cell binding was performed using primary human T cell and Jurkat cells by flow cytometry. Briefly, E. coli expressed anti CD3 ScFv supernatants, either at room temperature, or 55° C., 60° C. or 65° C. heat treated samples.
Pan T-cells (CD3-positive) and Jurkat-CD3-negative cells were prepared by staining Jurkat-CD3-negative cells with CFSE while keeping pan T-cells unstained. Jurkat-CD3-negative cell suspensions were resuspended at 20 million cells per each 50 mL conical tube. Cells were harvested by centrifugation at 400×g for 5 minutes and resuspended in DPBS followed by washing 2× in DPBS. Cells were stained with 1:25,000 dilution for a final dye concentration of 0.02 uM CFSE (2 uL of staining solution to 50 mL of cell suspension). Cells were incubated for 10 minutes at room temperature and centrifuged for 5 minutes at 400×g. After removal of supernatant, 3 mL of HI-FBS were added to the cell pellet, mixed and centrifuged for 5 min at 400×g. Supernatant was removed and cells were resuspended in BD stain buffer at 2×10\hat{ }6 cells/mL and incubated on ice or 4 C protected from light. Human pan T cells were thawed at 37 C and transferred gently into a conical tube containing 15 mL of warm or RT culture media (RPMI+10% FBS). […] Cells were harvested by centrifugation at 400×g for 5 min and resuspended in culture media (RPMI+10% HI-FBS). Pan T-cells (without staining) were prepared at 2×10\hat{ }6 cells/mL in flow staining buffer. Equal volumes of CFSE stained Jurkat-CD3-negative cells and unstained T-cells (CD3-positive) cells were mixed and plated 50 uL/well into assay plates. 50 uL/well neat bacterial supernatant samples and control sample (CD3W36 ScFv) were added to each well and plates were incubated 1 hr at 4 C or. Cells were harvested by centrifugation at 400×g for 4 min and 150 uL staining buffer were added to all wells, followed by centrifugation at 400×g for 4 min to pellet cells. To each well, 150 uL staining buffer were added followed by centrifugation at 400×g for 4 minutes to pellet cells.

[2] = biological target: T2, TRCW5 antigen (CD3δε-Fc-Avi) (biotinylated (site not stated)); experiment: ELISA after heat
T2 construct: also called recombinant CD3
T2 sequence (chain, as listed by the source mutant limits assumed): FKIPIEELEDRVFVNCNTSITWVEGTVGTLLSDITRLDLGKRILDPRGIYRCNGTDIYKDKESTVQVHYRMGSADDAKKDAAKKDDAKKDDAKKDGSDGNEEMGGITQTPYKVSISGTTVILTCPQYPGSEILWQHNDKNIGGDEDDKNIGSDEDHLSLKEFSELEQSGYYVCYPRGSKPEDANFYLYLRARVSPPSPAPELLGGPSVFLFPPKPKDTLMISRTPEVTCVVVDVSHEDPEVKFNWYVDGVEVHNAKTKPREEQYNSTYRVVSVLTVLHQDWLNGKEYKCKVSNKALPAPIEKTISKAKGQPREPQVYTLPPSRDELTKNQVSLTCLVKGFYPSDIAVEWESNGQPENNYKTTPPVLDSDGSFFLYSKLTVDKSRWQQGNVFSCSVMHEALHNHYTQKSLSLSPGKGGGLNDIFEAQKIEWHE

T1 sequence (P07766 23-207 limits assumed): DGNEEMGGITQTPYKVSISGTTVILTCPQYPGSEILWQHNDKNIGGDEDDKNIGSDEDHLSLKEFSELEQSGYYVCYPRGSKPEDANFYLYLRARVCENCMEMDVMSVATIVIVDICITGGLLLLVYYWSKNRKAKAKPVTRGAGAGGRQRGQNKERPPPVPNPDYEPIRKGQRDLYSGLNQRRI

B1: CD3B2063 (scFv)
scFv: QVQLVQSGAEVKKPGSSVKVSCKASGYTFTRSTMHWVKQAPGQGLEWIGYINPSSAYTNYAQKFQGRVTLTADKSTSTAYMELSSLRSEDTAVYYCASPQVHYDYNGFPYWGQGTLVTVSSGGSEGKSSGSGSESKSTGGSEIVLTQSPATLSASPGERVTLSCSASSSVSYMNWYQQKPGTAPRRLIYDSSKLASGVPARFSGSGSGRDYTLTISSLEPEDFAVYYCQQWSRNPPTFGGGTKVEIK
% Binding retained on T-cells, 55° C. [1]: 1 fraction | % Binding retained on T-cells, 60° C. [1]: 0.996 fraction | % Binding retained on T-cells, 65° C. [1]: 0.185 fraction | % Binding retained on T-cells, RT [1]: 1 fraction | % Retained 55° C. [2]: 108% | % Retained 60° C. [2]: 92% | % Retained 65° C. [2]: 11%

B2: CD3B2069 (scFv)
scFv: QVQLVQSGAEVKKPGSSVKVSCKASGYTFTRSTMHWVRQAPGQGLEWMGYINPSSAYTNYNQKFQGRVTLTADKSTSTAYMELSSLRSEDTAVYYCASPQVHYDYNGFPYWGQGTLVTVSSGGSEGKSSGSGSESKSTGGSEIVLTQSPATLSASPGERVTLSCSASSSVSYMNWYQQKPGTAPRRWIYDSSKLASGVPARFSGSGSGRDYTLTISSLEPEDFAVYYCQQWSRNPPTFGGGTKVEIK
% Binding retained on T-cells, 55° C. [1]: 1.08 fraction | % Binding retained on T-cells, 60° C. [1]: 1.48 fraction | % Binding retained on T-cells, 65° C. [1]: 0.11 fraction | % Binding retained on T-cells, RT [1]: 1 fraction | % Retained 55° C. [2]: 114% | % Retained 60° C. [2]: 109% | % Retained 65° C. [2]: 17%

B3: CD3B2078 (scFv)
scFv: QVQLVQSGAEVKKPGSSVKVSCKASGYTFTRSTMHWVRQAPGQGLEWIGYINPSSAYTNYAQKFQGRVTLTADKSTSTAYMELSSLRSEDTAVYYCASPQVHYDYNGFPYWGQGTLVTVSSGGSEGKSSGSGSESKSTGGSEIVLTQSPATLSASPGERVTLSCSASSSVSYMNWYQQKPGTSPRRLIYDSSKLASGVPARFSGSGSGRDYTLTISSLEPEDFAVYYCQQWSRNPPTFGGGTKVEIK
% Binding retained on T-cells, 55° C. [1]: 1.01 fraction | % Binding retained on T-cells, 60° C. [1]: 0.762 fraction | % Binding retained on T-cells, 65° C. [1]: 0.0574 fraction | % Binding retained on T-cells, RT [1]: 1 fraction | % Retained 55° C. [2]: 107% | % Retained 60° C. [2]: 88% | % Retained 65° C. [2]: 2%

B4: CD3B2077 (scFv)
scFv: QVQLVQSGAEVKKPGSSVKVSCKASGYTFTRSTMHWVRQAPGQGLEWIGYINPSSAYTNYAQKFQGRVTLTADKSTSTAYMELSSLRSEDTAVYYCASPQVHYDYNGFPYWGQGTLVTVSSGGSEGKSSGSGSESKSTGGSEIVLTQSPATLSASPGERVTLSCSASSSVSYMNWYQQKPGTAPRRWIYDSSKLASGVPARFSGSGSGRDYTLTISSLEPEDFAVYYCQQWSRNPPTFGGGTKVEIK
% Binding retained on T-cells, 55° C. [1]: 1.03 fraction | % Binding retained on T-cells, 60° C. [1]: 1.1 fraction | % Binding retained on T-cells, 65° C. [1]: 0.307 fraction | % Binding retained on T-cells, RT [1]: 1 fraction | % Retained 55° C. [2]: 106% | % Retained 60° C. [2]: 107% | % Retained 65° C. [2]: 22%

B5: CD3B2073 (scFv)
scFv: QVQLVQSGAEVKKPGSSVKVSCKASGYTFTRSTMHWVRQAPGQGLEWMGYINPSSAYTNYNQKFQGRVTLTADKSTSTAYMELSSLRSEDTAVYYCASPQVHYDYNGFPYWGQGTLVTVSSGGSEGKSSGSGSESKSTGGSEIVLTQSPATLSASPGERVTLSCSASSSVSYMNWYQQKPGQAPRRWIYDSSKLASGVPARFSGSGSGRDYTLTISSLEPEDFAVYYCQQWSRNPPTFGGGTKVEIK
% Binding retained on T-cells, 55° C. [1]: 0.993 fraction | % Binding retained on T-cells, 60° C. [1]: 1.1 fraction | % Binding retained on T-cells, 65° C. [1]: 0.348 fraction | % Binding retained on T-cells, RT [1]: 1 fraction | % Retained 55° C. [2]: 113% | % Retained 60° C. [2]: 110% | % Retained 65° C. [2]: 27%

B6: CD3B2072 (scFv)
scFv: QVQLVQSGAEVKKPGSSVKVSCKASGYTFTRSTMHWVRQAPGQGLEWMGYINPSSAYTNYNQKFQGRVTLTADKSTSTAYMELSSLRSEDTAVYYCASPQVHYDYNGFPYWGQGTLVTVSSGGSEGKSSGSGSESKSTGGSEIVLTQSPATLSASPGERVTLSCSASSSVSYMNWYQQKPGQSPRRWIYDSSKLASGVPARFSGSGSGRDYTLTISSLEPEDFAVYYCQQWSRNPPTFGGGTKVEIK
% Binding retained on T-cells, 55° C. [1]: 0.872 fraction | % Binding retained on T-cells, 60° C. [1]: 1.27 fraction | % Binding retained on T-cells, 65° C. [1]: 0.0933 fraction | % Binding retained on T-cells, RT [1]: 1 fraction | % Retained 55° C. [2]: 117% | % Retained 60° C. [2]: 111% | % Retained 65° C. [2]: 17%

B7: CD3B2071 (scFv)
scFv: QVQLVQSGAEVKKPGSSVKVSCKASGYTFTRSTMHWVRQAPGQGLEWMGYINPSSAYTNYNQKFQGRVTLTADKSTSTAYMELSSLRSEDTAVYYCASPQVHYDYNGFPYWGQGTLVTVSSGGSEGKSSGSGSESKSTGGSEIVLTQSPATLSASPGERVTLSCSASSSVSYMNWYQQKPGTAPRRLIYDSSKLASGVPARFSGSGSGRDYTLTISSLEPEDFAVYYCQQWSRNPPTFGGGTKVEIK
% Binding retained on T-cells, 55° C. [1]: 1.01 fraction | % Binding retained on T-cells, 60° C. [1]: 0.899 fraction | % Binding retained on T-cells, 65° C. [1]: 0.12 fraction | % Binding retained on T-cells, RT [1]: 1 fraction | % Retained 55° C. [2]: 103% | % Retained 60° C. [2]: 88% | % Retained 65° C. [2]: 4%

B8: CD3B2079 (scFv)
scFv: QVQLVQSGAEVKKPGSSVKVSCKASGYTFTRSTMHWVRQAPGQGLEWIGYINPSSAYTNYAQKFQGRVTLTADKSTSTAYMELSSLRSEDTAVYYCASPQVHYDYNGFPYWGQGTLVTVSSGGSEGKSSGSGSESKSTGGSEIVLTQSPATLSASPGERVTLSCSASSSVSYMNWYQQKPGTAPRRLIYDSSKLASGVPARFSGSGSGRDYTLTISSLEPEDFAVYYCQQWSRNPPTFGGGTKVEIK
% Binding retained on T-cells, 55° C. [1]: 1.06 fraction | % Binding retained on T-cells, 60° C. [1]: 0.979 fraction | % Binding retained on T-cells, 65° C. [1]: 0.116 fraction | % Binding retained on T-cells, RT [1]: 1 fraction | % Retained 55° C. [2]: 111% | % Retained 60° C. [2]: 92% | % Retained 65° C. [2]: 2%

B9: CD3B2065 (scFv)
scFv: QVQLVQSGAEVKKPGSSVKVSCKASGYTFTRSTMHWVKQAPGQGLEWIGYINPSSAYTNYAQKFQGRVTLTADKSTSTAYMELSSLRSEDTAVYYCASPQVHYDYNGFPYWGQGTLVTVSSGGSEGKSSGSGSESKSTGGSEIVLTQSPATLSASPGERVTLSCSASSSVSYMNWYQQKPGQAPRRWIYDSSKLASGVPARFSGSGSGRDYTLTISSLEPEDFAVYYCQQWSRNPPTFGGGTKVEIK
% Binding retained on T-cells, 55° C. [1]: 1.14 fraction | % Binding retained on T-cells, 60° C. [1]: 1.33 fraction | % Binding retained on T-cells, 65° C. [1]: 0.156 fraction | % Binding retained on T-cells, RT [1]: 1 fraction | % Retained 55° C. [2]: 115% | % Retained 60° C. [2]: 112% | % Retained 65° C. [2]: 48%

B10: CD3B2080 (scFv)
scFv: QVQLVQSGAEVKKPGSSVKVSCKASGYTFTRSTMHWVRQAPGQGLEWIGYINPSSAYTNYAQKFQGRVTLTADKSTSTAYMELSSLRSEDTAVYYCASPQVHYDYNGFPYWGQGTLVTVSSGGSEGKSSGSGSESKSTGGSEIVLTQSPATLSASPGERVTLSCSASSSVSYMNWYQQKPGQSPRRWIYDSSKLASGVPARFSGSGSGRDYTLTISSLEPEDFAVYYCQQWSRNPPTFGGGTKVEIK
% Binding retained on T-cells, 55° C. [1]: 1.07 fraction | % Binding retained on T-cells, 60° C. [1]: 1.13 fraction | % Binding retained on T-cells, 65° C. [1]: 0.0573 fraction | % Binding retained on T-cells, RT [1]: 1 fraction | % Retained 55° C. [2]: 109% | % Retained 60° C. [2]: 108% | % Retained 65° C. [2]: 17%

B11: CD3B2081 (scFv)
scFv: QVQLVQSGAEVKKPGSSVKVSCKASGYTFTRSTMHWVRQAPGQGLEWIGYINPSSAYTNYAQKFQGRVTLTADKSTSTAYMELSSLRSEDTAVYYCASPQVHYDYNGFPYWGQGTLVTVSSGGSEGKSSGSGSESKSTGGSEIVLTQSPATLSASPGERVTLSCSASSSVSYMNWYQQKPGQAPRRWIYDSSKLASGVPARFSGSGSGRDYTLTISSLEPEDFAVYYCQQWSRNPPTFGGGTKVEIK
% Binding retained on T-cells, 55° C. [1]: 1.04 fraction | % Binding retained on T-cells, 60° C. [1]: 1.2 fraction | % Binding retained on T-cells, 65° C. [1]: 0.102 fraction | % Binding retained on T-cells, RT [1]: 1 fraction | % Retained 55° C. [2]: 112% | % Retained 60° C. [2]: 114% | % Retained 65° C. [2]: 38%

B12: CD3B2064 (scFv)
scFv: QVQLVQSGAEVKKPGSSVKVSCKASGYTFTRSTMHWVKQAPGQGLEWIGYINPSSAYTNYAQKFQGRVTLTADKSTSTAYMELSSLRSEDTAVYYCASPQVHYDYNGFPYWGQGTLVTVSSGGSEGKSSGSGSESKSTGGSEIVLTQSPATLSASPGERVTLSCSASSSVSYMNWYQQKPGQSPRRWIYDSSKLASGVPARFSGSGSGRDYTLTISSLEPEDFAVYYCQQWSRNPPTFGGGTKVEIK
% Binding retained on T-cells, 55° C. [1]: 1.17 fraction | % Binding retained on T-cells, 60° C. [1]: 0.741 fraction | % Binding retained on T-cells, 65° C. [1]: 0.241 fraction | % Binding retained on T-cells, RT [1]: 1 fraction | % Retained 55° C. [2]: 111% | % Retained 60° C. [2]: 107% | % Retained 65° C. [2]: 33%
